Reference: patent publication US9951373B2, “Oplophorus-derived luciferases, novel coelenterazine substrates, and methods of use” (Promega Corporation, priority 2010, dated 2018)

Assays:
CRE [1] = assay: Transcriptional reporter, bulk transfection, CRE in HEK293 cells; format: cell-based, human; settings: HEK293, 10 nM FSK, 4 h
Method: (§1) The transcriptional reporter containing HRE and 9B8 opt-P was used in the bulk transfection of HeLa cells
(§2) HEK293, NIH3T3, or HeLa cells were plated to a single well of a 6-well tissue culture plate the day before transfection at a density of 4.5×10^5 cells/well in 3 mL complete medium (DMEM+10% FBS+1×NEAA+1× sodium pyruvate) for HEK293 cells, 3×10^5 cells/well in 3 mL complete medium (DMEM+10% fetal calf serum (FCS)+1×NEAA+1× sodium pyruvate) for NIH3T3 cells, or 9.9×10^5 cells/well in 3 mL complete medium (DMEM+10% FBS+1×NEAA) for HeLa cells. Cells were grown overnight at 37° C.
(§3) 3,300 ng of reporter plasmid DNA in 155 μL OPTI-MEM® was mixed with 9.9 μL FUGENE® HD transfection reagent, vortexed briefly, and incubated at room temperature for 10 min. The CRE transcriptional reporters were used to transfect HEK293 and NIH3T3 cells. The HRE transcriptional reporters were used to transfect HeLa cells. The reporter mixture was added to cells and mixed by gentle rocking followed by incubation at 37° C. for 6 hrs (HEK293 and NIH3T3) or 3 hrs (HeLa). […]
(§4) FSK (CRE stimulator) or 17-AAG (HRE stimulator; 17-Allylamino-demethoxy geldanamycin) in OPTI-MEM® was added to the cells (10 nM or 10 μM final concentration for FSK; 1 nM or 1 μM final concentration for 17-AAG) and incubated at 37° C. for 4 hrs (FSK) or 6 hrs (17-AAG). […] Luminescence was measured on a GLOMAX® Luminometer.

[2] = system: antioxidant response element (ARE); assay: Transcriptional reporter, reverse transfection, ARE in HEK293 cells; format: cell-based, human; settings: 100 ng DNA, 24 h
Method: HEK293 cells were trypsinized (T75 flask, 3 mL trypsin) and resuspended in […] (approximately 8.9×10^6 total cells) in medium containing DMEM+10% FBS+1×NEAA. Each transcriptional reporter was prepared for transfection by mixing 1.2 mL OPTI-MEM®, 12 μL transcription reporter DNA (100 ng) and 36 μL FUGENE® HD transfection reagent together and incubated at room temperature for 35 min. Following incubation, 624 μL of the transfection/reporter DNA mixture was added to 12 mL of cell suspension and mixed by inversion. After mixing, 100 μL of the cell/DNA mixture was added to wells of a 96-well plate (2 constructs/plate). The cells were incubated at 37° C. for 22 hrs. Tert-butylhydroquinone (a Nrf2 stabilizer; tBHQ; 1 μM (“baseline”) or 20 μM) or sulphoraphane, (an organosulfer antioxidant known to activate Nrf2; 1 μM (“baseline”) or 20 μM) in OPTI-MEM® was added to each well and incubated at 37° C. for 24 hrs. Cells were lysed with 100 μL lytic reagent as described above for the forward transfection. Luminescence was measured on a GLOMAX® Luminometer.

[3] = system: cAMP response element (CRE); assay: Transcriptional reporter, forward transfection, CRE in HEK293 cells; format: cell-based, human; settings: 3 h; for baseline: 10 nM FSK
Method: HEK293 cells were plated at 15,000 cells/well in six 96-well tissue culture plates. Cells were grown in 100 μL of DMEM+10% FBS+1× non-essential amino acids (NEAA) and incubated overnight at 37° C. The cells were transiently transfected with either 10 ng or 100 ng plasmid DNA/well of pGL4.29 9B8 opt, pGL4.29 9B8 opt-P, or pGL4.29. Plasmid DNA was mixed with 850 μL of OPTI-MEMO (Invitrogen) and 32.4 μL of FUGENE® HD transfection reagent (Promega Corp.) and incubated at room temperature for 10 min. Eight μL of the transfection/reporter DNA mixture was added to the appropriate wells (2 constructs/plate). Cells were incubated for 4 hrs at 37° C. The medium was replaced with OPTI-MEM®+0.5% dialyzed FBS+1×NEAA+1× sodium pyruvate+1× Penn-Strep and incubated overnight at 37° C.
A lytic reagent containing 100 mM MES pH 6.1, 1 mM CDTA, 150 mM KCl, 35 mM thiourea, 2 mM DTT, 0.25% TERGITOLO NP-9 (v/v), 0.025% MAZUO DF 204, and 20 μM PBI-3939 was added to the cells containing pGL4.29 9B8 opt or pGL4.29 9B8 opt-P and allowed to incubated for 10 min at room temperature (100 μL lytic reagent added to 100 μL cells). ONE-GLO™ assay reagent (Promega Corp.) was added to cells containing pGL4.29 and used according to the manufacturer's protocol (100 μL reagent added to 100 μL cells). Luminescence was measured on a GLOMAX® Luminometer.

CRE [4] = assay: Transcriptional reporter, bulk transfection, CRE in NIH3T3 cells; format: cell-based; settings: NIH3T3, 10 nM FSK, 4 h
Method: as §1, §2, §3, §4

[5] = system: heat shock response element (HRE); assay: Transcriptional reporter, bulk transfection, HRE in HeLa cells; format: cell-based; settings: 6 h
Method: as §1, §2, §3, §4

B1: 9B8 opt-P: 9B8 opt further comprising the PEST protein degradation sequence (SEQ ID NO: 65) (protein)
chain: MVFTLEDFVGDWRQTAGYNLDQVLEQGGLSSLFQKLGVSVTPIQKIVLSGENGLKIDIHVIIPYEGLSGYQMGQIEKIFKVVYPVDDHHFKVILHYGTLVIDGVTPNMIDYFGRPYEGIAVFDGKKITVTGTLWNGNKIIDERLINPDGSLLFRVTINGVTGWRLCERILANSHGFPPEVEEQAAGTLPMSCAQESGMDRHPAACASARINV
modifications: PEST degradation sequence
CRE [1]
  baseline: 3,960,000 RLU
[2]
  RLU (20 μM sulphoraphane): 3,940,000 RLU
  RLU (20 μM tBHQ): 8,460,000 RLU
[2]; 1 μM sulphoraphane
  baseline: 258,406 RLU
[2]; 1 μM tBHQ
  baseline: 317,238 RLU
[3]; 10 ng DNA
  baseline: 11179 RLU
  RLU (10 µM FSK): 1,353,459 RLU
  Response: 121
[3]; 100 ng DNA
  baseline: 122,071 RLU
  RLU (10 µM FSK): 20,544,753 RLU
  Response: 168
CRE [4]
  baseline: 410,461 RLU
[5]
  baseline: 278,118 RLU
